# In article doi:10.1101/2025.02.20.639226, “In vitro reconstitution of minimal human centrosomes” (bioRxiv, 2025):
# Tests used:
# [1] = biological target: GFP::CDK5RAP2 isoform B (full-length, wild type) (human) (UniProt Q96SN8); experiment: partitioning into in vitro scaffolds, confocal fluorescence microscopy; 4-component asters: 167nm GFP::CDK5RAP2, 33nM mBFP::γ-TuRCs, 33nM mCherry::HSET, 13μM HiLyte-647-labeled α/β tubulin; 50mM KCl, 25mM HEPES, pH7.4, IgM+; no ATP·MgCl2; compared with 3-component asters
# GFP::CDK5RAP2 isoform B (full-length, wild type) (human), sequence (Q96SN8 other isoform, or with tags, fused parts or gaps): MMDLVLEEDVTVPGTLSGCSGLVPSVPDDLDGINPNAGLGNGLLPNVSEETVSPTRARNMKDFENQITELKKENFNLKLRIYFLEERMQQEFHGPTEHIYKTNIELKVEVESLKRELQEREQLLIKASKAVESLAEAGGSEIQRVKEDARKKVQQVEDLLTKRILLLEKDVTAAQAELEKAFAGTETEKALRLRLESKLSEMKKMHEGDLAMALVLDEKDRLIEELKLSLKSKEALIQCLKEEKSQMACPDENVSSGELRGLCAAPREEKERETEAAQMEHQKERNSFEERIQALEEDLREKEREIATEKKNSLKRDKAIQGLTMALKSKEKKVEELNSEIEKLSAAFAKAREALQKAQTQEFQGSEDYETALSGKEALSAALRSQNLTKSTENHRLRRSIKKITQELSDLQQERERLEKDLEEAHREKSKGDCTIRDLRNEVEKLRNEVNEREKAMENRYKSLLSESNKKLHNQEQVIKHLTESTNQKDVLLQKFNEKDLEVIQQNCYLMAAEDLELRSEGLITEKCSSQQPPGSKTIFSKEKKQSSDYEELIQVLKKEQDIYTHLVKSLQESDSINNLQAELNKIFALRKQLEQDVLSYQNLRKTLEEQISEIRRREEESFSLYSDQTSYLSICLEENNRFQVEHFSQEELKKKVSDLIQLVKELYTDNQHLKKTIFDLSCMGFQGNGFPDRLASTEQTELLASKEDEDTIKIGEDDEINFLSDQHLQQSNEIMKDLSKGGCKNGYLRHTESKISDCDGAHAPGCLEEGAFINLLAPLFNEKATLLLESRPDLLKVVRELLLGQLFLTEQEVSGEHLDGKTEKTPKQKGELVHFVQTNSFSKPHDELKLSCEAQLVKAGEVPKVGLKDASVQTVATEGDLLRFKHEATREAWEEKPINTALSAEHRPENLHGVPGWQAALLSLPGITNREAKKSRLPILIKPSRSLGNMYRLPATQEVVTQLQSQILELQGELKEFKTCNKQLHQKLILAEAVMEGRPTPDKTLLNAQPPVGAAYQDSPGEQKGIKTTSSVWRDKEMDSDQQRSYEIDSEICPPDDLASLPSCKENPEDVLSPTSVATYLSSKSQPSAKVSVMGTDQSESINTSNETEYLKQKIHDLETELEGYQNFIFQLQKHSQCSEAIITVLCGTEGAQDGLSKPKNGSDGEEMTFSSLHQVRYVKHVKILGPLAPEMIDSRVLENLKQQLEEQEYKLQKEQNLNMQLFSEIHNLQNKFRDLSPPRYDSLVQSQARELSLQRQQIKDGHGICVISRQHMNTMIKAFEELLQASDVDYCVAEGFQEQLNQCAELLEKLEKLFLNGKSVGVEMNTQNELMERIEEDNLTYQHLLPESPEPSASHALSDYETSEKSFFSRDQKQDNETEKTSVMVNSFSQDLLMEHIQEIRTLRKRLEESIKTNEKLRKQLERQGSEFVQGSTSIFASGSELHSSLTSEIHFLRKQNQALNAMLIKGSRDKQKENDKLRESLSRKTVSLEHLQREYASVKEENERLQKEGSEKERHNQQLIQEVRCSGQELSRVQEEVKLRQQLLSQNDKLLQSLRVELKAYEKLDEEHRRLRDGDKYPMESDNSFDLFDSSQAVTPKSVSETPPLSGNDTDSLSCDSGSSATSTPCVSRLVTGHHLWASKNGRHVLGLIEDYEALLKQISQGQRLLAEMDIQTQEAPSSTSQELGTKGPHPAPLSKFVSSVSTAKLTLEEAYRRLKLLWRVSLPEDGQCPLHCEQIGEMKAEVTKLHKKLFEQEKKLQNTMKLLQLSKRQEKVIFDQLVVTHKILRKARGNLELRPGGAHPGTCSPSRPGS
# [2] = biological target: T1, GFP::CDK5RAP2 isoform B (full-length, wild type) (human, UniProt Q96SN8-4 1-1814); experiment: partitioning into in vitro scaffolds, confocal fluorescence microscopy; GFP::CDK5RAP2 assemblies (120nM) induced with anti-CM2 IgM; mCherry, full-length or ΔIDR mCherry::HSET at 50nM; 50mM KCl, 25mM HEPES; partition coefficient; details: both partners purified
# T1 construct: CDK5 regulatory subunit-associated protein 2 (CDK5RAP2/CEP215), human, isoform B, Protein ID Q96SN8-4, lacking a.a; 1576-1654 of the longest isoform; Stood in the assays as micron-scale assemblies nucleated by an anti-CM2 IgM; also called CEP215; GFP::CDK5RAP2 scaffolds; source: SF9 insect cells (baculovirus, FlexiBAC), purified (Ni-NTA, MBP trap beads, eluted with PreScission protease)
# T1 sequence (Q96SN8 other isoform, or with tags, fused parts or gaps): as above
# human gamma tubulin ring complex tagged with blue fluorescent protein (mBFP::γ-TuRC), sequence (P23258 whole entry, looked up, one chain of several): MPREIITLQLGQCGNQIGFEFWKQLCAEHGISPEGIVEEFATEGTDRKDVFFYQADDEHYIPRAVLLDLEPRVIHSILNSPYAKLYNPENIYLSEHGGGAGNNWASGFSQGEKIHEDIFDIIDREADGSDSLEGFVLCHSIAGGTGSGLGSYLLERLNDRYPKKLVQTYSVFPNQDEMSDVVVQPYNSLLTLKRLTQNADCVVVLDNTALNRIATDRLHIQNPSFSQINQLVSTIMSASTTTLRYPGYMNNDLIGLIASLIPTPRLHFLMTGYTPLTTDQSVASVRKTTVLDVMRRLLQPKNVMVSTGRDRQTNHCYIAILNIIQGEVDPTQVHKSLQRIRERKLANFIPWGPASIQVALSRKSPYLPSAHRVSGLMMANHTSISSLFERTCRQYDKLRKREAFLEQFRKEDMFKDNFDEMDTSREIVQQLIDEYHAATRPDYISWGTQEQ
Molecule,fold more recruited into scaffolds in the presence of mCherry::HSET (4-component against 3-component) [1] [fold],binding result [2]
human gamma tubulin ring complex tagged with blue fluorescent protein (mBFP::γ-TuRC) (from UniProt P23258 1-451),1.4,
"mCherry::HSET (full-length, wild type) (natural protein, human, UniProt Q9BW19 1-673, looked up, HSET/KifC1, kinesin-14 motor protein, human; also called KifC1; HSET/KifC1; source: SF9 insect cells (baculovirus, FlexiBAC), purified (Ni-NTA)) MDPQRSPLLEVKGNIELKRPLIKAPSQLPLSGSRLKRRPDQMEDGLEPEKKRTRGLGATTKITTSHPRVPSLTTVPQTQGQTTAQKVSKKTGPRCSTAIATGLKNQKPVPAVPVQKSGTSGVPPMAGGKKPSKRPAWDLKGQLCDLNAELKRCRERTQTLDQENQQLQDQLRDAQQQVKALGTERTTLEGHLAKVQAQAEQGQQELKNLRACVLELEERLSTQEGLVQELQKKQVELQEERRGLMSQLEEKERRLQTSEAALSSSQAEVASLRQETVAQAALLTEREERLHGLEMERRRLHNQLQELKGNIRVFCRVRPVLPGEPTPPPGLLLFPSGPGGPSDPPTRLSLSRSDERRGTLSGAPAPPTRHDFSFDRVFPPGSGQDEVFEEIAMLVQSALDGYPVCIFAYGQTGSGKTFTMEGGPGGDPQLEGLIPRALRHLFSVAQELSGQGWTYSFVASYVEIYNETVRDLLATGTRKGQGGECEIRRAGPGSEELTVTNARYVPVSCEKEVDALLHLARQNRAVARTAQNERSSRSHSVFQLQISGEHSSRGLQCGAPLSLVDLAGSERLDPGLALGPGERERLRETQAINSSLSTLGLVIMALSNKESHVPYRNSKLTYLLQNSLGGSAKMLMFVNISPLEENVSESLNSLRFASKVNQCVIGTAQANRK",,binds
